From PMC2774616, “Cellular Assays for High-Throughput Screening for Modulators of Trk Receptor Tyrosine Kinases” (Current Chemical Genomics, 2008) come the findings set out here.

Values joined by “and” are separate entries in the source; they are usually repeats but may differ in a detail not shown here. Identical values can stand only once.

Common to all, as to format: cell-based
For one assay, the target named is T1, human TrkC (Homo sapiens, UniProt Q16288).
T1 construct: Full length human TRKA, TRKB and TRKC cDNAs were synthesized by Blue Heron Biotechnology; expressed in transfected cells
The experiment in a line: Neurotrophin dose response, beta-lactamase reporter assay in TrkC-NFAT-bla CHO-K1 cells. As to conditions: for EC50: 5 h stimulation, 0.1% DMSO, * values may not be accurate, curves did not reach saturation; for response of TrkC-NFAT-bla CHO-K1 cells (in words): up to 50 nM. An excerpt: (§1) NFAT beta-lactamase reporter line NFAT-bla CHO-K1 cells (Invitrogen, Carlsbad, CA, catalog number K1078) were transfected using Lipofectamine™ LTX transfection reagent (Invitrogen, Carlsbad, CA) with pcDNA6-TRKA, pcDNA6-TRKB and pcDNA6-TRKC and selected for blasticidin-resistance. Blasticidin-resistant TrkA transfected cells were stimulated with NGF (Invitrogen, catalog number 13257-019), TrkB transfected cells with BDNF (Invitrogen, catalog number PHC7074) and TrkC transfected cells with NT-3 (Invitrogen, catalog number PHC7034) for 5 hours before neurotrophin stimulated beta-lactamase expressing cells were collected by FACS as single cells onto 96-well plates. The survived clones that responded to the respective ligand were selected and expanded. The clone with the best response to each ligand was further tested in a 384-well format for the dose response of neurotrophins and inhibitors and in a 96-well format for RNAi knock-down.
(§2) Cells in a sub-confluency state (or cryopreserved cells) were resuspended in Assay Medium (DMEM with GlutaMAX™ (Invitrogen, catalog number 10569) supplemented with 0.1% dialyzed FBS, 0.1 mM NEAA, 25 mM HEPES, 100 U/mL Penicillin and 100 µg/mL Streptomycin) and plated in a 384-well assay plate (Corning, Lowell, MA, catalog number 3712) at 10,000 cells (32 μL) per well. 32 μL of Assay Medium without cells were plated in Cell-free Control wells on the same plate. 4 µL 1% DMSO was added to each well to reach final DMSO concentration of 0.1% to mimic the screening situation where compounds dissolved in DMSO are added to test wells. Cells were then stimulated with 4 µL/well 10 x ligands (NGF, BDNF, NT-4 (Invitrogen, catalog number PHC7024), NT-3 or Thapsigargin (Sigma, St. Louis, MO)) over the indicated concentration range (1 pM ~ 50000 pM) for 5 hours before adding 8 µL/well 6X LiveBLAzer™-FRET B/G Substrate mixture (Invitrogen, catalog number K1096) for 2 hours. Fluorescence intensity at excitation 406 nm and emission 460 nm and 530 nm were obtained using Tecan Safire^2 fluorescence plate reader (Tecan, Durham, NC) (Table 1). After subtracting the average fluorescence intensity from the Cell-free Control wells, the 460nm/530nm emission ratio was calculated. Response Ratio is a measurement of the assay window and is calculated as the 460nm/530nm Emission Ratio of the stimulated wells divided by the 460nm/530nm Emission Ratio of the unstimulated wells. Response Ratios were plotted against test ligand concentrations in log scale and then analyzed using Prism software (GraphPad Software, Inc. San Diego, CA). Sigmoidal dose-response equation with varying slope was used to fit the data and generate EC50 values. Z’-factor values were calculated as: Z’-factor = 1 - [(3 x stdevunstim + 3 x stdevmaxstim) / (avgmaxstim – avgunstim)].
For orientation: In a reporter assay the amount or activity of a reporter protein is the signal.

The target of the next assay is T2, human TrkA (Homo sapiens, UniProt P04629).
T2 construct: Full length human TRKA, TRKB and TRKC cDNAs were synthesized by Blue Heron Biotechnology; expressed in transfected cells
The experiment in a line: Neurotrophin dose response, beta-lactamase reporter assay in TrkA-NFAT-bla CHO-K1 cells. To be noted: for maximum response ratio / response over baseline, TrkA-NFAT-bla CHO-K1: 460nm/530nm ratio stimulated vs unstimulated; for EC50: 5 h stimulation, 0.1% DMSO, * values may not be accurate, curves did not reach saturation; for response of TrkA-NFAT-bla CHO-K1 cells (in words): up to 50 nM.
Description: as §1, §2

The target in a further assay is T3, human TrkB (Homo sapiens, UniProt Q16620).
T3 construct: Full length human TRKA, TRKB and TRKC cDNAs were synthesized by Blue Heron Biotechnology; expressed in transfected cells
The experiment in a line: Neurotrophin dose response, beta-lactamase reporter assay in TrkB-NFAT-bla CHO-K1 cells. To be noted: for maximum response ratio, TrkB-NFAT-bla CHO-K1: 460nm/530nm ratio stimulated vs unstimulated; for EC50: 5 h stimulation, 0.1% DMSO.
Description: as §1, §2

Assay [1] concerns NFAT-bla reporter, Trk-NFAT-bla CHO-K1 cells. The experiment in a line: Thapsigargin stimulation of Trk-NFAT-bla CHO-K1 cell lines. To be noted: used for stimulation in inhibitor assay. How it is done: as §2, with “Cells were then stimulated with 4 µL/well 10 x ligands (NGF, BDNF, NT-4 (Invitrogen, catalog number PHC7024), NT-3 or Thapsigargin (Sigma, St. Louis, MO)) over the indicated concentration range (1 pM ~ 50000 pM) for 5 hours before adding 8 µL/well 6X LiveBLAzer™-FRET B/G Substrate mixture (Invitrogen, catalog number K1096) for 2 hours.” left out, “Sigmoidal dose-response equation with varying slope was used to fit the data and generate EC50 values. Z’-factor values were calculated as: Z’-factor = 1 - [(3 x stdevunstim + 3 x stdevmaxstim) / (avgmaxstim – avgunstim)].” left out

The mark [2] stands for this setting: used for stimulation in inhibitor assay.

T2 sequence (P04629 33-796): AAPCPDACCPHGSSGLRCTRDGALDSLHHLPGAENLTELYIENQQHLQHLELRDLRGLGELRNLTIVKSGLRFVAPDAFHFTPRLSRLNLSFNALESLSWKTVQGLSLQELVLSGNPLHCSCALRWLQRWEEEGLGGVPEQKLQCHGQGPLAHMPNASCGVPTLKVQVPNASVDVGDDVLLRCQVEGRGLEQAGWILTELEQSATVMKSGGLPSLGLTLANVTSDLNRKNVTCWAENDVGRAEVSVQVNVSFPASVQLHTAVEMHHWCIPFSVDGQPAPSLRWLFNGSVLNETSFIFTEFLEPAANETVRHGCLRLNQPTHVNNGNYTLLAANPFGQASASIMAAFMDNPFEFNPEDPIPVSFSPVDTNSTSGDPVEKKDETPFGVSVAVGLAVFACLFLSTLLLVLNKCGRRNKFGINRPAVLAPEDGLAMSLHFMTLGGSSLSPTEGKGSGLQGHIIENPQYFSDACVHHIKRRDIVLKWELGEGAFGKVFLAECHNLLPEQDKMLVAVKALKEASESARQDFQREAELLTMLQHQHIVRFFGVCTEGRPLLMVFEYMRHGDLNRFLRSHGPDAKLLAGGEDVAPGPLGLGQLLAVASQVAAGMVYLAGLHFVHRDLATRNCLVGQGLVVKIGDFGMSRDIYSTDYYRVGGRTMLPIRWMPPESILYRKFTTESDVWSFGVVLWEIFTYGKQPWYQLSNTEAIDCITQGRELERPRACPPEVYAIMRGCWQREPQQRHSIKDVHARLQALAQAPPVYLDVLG
T3 sequence (Q16620 32-838 isoform Q16620-4 limits assumed): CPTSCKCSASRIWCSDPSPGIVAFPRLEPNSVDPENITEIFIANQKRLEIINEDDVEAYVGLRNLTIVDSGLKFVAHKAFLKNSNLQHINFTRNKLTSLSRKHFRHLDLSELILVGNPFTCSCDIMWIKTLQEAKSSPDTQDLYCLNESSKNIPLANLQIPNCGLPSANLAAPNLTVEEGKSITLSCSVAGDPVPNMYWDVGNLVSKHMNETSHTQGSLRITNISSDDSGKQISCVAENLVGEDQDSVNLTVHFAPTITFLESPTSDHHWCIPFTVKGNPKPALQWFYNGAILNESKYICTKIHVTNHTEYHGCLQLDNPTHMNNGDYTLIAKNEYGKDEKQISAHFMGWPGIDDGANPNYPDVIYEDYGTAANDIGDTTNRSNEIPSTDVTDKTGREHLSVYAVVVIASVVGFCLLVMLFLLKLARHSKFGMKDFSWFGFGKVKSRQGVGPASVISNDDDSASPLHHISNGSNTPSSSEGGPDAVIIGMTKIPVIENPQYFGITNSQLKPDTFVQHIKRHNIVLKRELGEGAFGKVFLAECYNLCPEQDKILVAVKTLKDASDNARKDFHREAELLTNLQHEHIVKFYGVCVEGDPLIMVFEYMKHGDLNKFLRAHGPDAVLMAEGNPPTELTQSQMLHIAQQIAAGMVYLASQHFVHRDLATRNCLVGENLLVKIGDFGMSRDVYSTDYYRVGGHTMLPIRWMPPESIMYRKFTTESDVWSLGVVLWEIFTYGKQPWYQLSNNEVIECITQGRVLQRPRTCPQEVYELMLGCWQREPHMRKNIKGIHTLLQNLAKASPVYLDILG
T1 sequence (Q16288 32-825 isoform Q16288-3 limits assumed): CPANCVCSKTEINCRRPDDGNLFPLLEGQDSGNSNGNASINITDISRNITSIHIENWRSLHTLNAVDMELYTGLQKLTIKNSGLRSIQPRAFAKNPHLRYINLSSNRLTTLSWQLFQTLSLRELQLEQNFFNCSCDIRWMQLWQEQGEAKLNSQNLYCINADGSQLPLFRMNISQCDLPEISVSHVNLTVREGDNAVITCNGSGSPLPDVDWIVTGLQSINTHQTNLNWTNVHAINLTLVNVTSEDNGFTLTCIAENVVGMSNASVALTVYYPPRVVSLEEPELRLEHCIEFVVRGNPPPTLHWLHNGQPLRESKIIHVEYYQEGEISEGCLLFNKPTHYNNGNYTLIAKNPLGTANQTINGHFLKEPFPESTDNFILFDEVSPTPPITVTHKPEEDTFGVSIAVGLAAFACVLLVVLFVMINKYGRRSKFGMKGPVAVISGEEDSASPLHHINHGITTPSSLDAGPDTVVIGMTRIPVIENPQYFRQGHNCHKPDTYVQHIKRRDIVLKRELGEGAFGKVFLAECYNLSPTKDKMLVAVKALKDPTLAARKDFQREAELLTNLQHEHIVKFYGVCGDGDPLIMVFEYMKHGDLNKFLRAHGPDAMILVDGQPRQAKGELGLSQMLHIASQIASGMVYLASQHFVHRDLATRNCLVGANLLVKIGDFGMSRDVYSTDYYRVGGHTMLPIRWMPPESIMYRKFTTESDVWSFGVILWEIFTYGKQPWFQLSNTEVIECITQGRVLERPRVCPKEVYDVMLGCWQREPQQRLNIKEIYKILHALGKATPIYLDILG

In general, EC50 refers to the concentration needed to bring the measured effect to its halfway point. Lower therefore signals greater potency. “NT-3: neurotrophin 3, preferred ligand of TrkC”: the “maximum response ratio, TrkC-NFAT-bla CHO-K1” value with human TrkC (460nm/530nm ratio stimulated vs unstimulated) was 8.5. Besides, the EC50 was 0.093 nM and 0.09 nM with human TrkC; ~16 nM and 16 nM in the assay with human TrkA; 2.5 nM in the assay with human TrkB. In the assay with human TrkC (setting [2]), the “EC80 concentration, TrkC cells” value is listed as 0.72 nM. Also, the “maximum response ratio / response over baseline, TrkA-NFAT-bla CHO-K1” value with human TrkA was determined as 3 fold. Also, the “maximum response ratio, TrkB-NFAT-bla CHO-K1” value with human TrkB came out at 13.
For `C/C=C(/C)C(=O)O[C@H]1C(C)=C2[C@H]([C@@H]1OC(=O)CCCCCCC)[C@@](C)(OC(C)=O)C[C@H](OC(=O)CCC)[C@@]1(O)[C@H]2OC(=O)[C@@]1(C)O` [Thapsigargin], the “EC80 concentration, Thapsigargin” value in assay [1] amounted to 8 nM.

B1: NGF: nerve growth factor, neurotrophin, preferred ligand of TrkA (protein, UniProt P01139 122-241, looked up)
Beta-nerve growth factor: SSTHPVFHMGEFSVCDSVSVWVGDKTTATDIKGKEVTVLAEVNINNSVFRQYFFETKCRASNPVESGCRGIDSKHWNSYCTTTHTFVKALTTDEKQAAWRFIRIDTACVCVLSRKATRRG
Regarding B1, the EC50 in the assay with human TrkC was above 50 nM; in the assay with human TrkA, 0.044 nM; in the assay with human TrkA (listed as NGF 2.5s), 0.04 nM; in the assay with human TrkB, above 50 nM. Further, in the assay with human TrkC, the “response of TrkC-NFAT-bla CHO-K1 cells (in words)” value is on record as “did not show any response”. The “maximum response ratio / response over baseline, TrkA-NFAT-bla CHO-K1” value with human TrkA is recorded as 5.5 fold. In the assay with human TrkA (setting [2]), the “EC80 concentration, TrkA cells” value is reported as 0.77 nM. For the same molecule, the “response of TrkB-NFAT-bla CHO-K1 cells (in words)” value in the assay with human TrkB (up to 50 nM) is reported as “did not respond at all”.

B2: BDNF: brain-derived neurotrophic factor, neurotrophin, ligand of TrkB (protein, UniProt P23560 19-247, looked up)
Neurotrophic factor BDNF …: APMKEANIRGQGGLAYPGVRTHGTLESVNGPKAGSRGLTSLADTFEHVIEELLDEDQKVRPNEENNKDADLYTSRVMLSSQVPLEPPLLFLLEEYKNYLDAANMSMRVRRHSDPARRGELSVCDSISEWVTAADKKTAVDMSGGTVTVLEKVPVSKGQLKQYFYETKCNPMGYTKEGCRGIDKRHWNSQCRTTQSYVRALTMDSKKRIGWRFIRIDTSCVCTLTIKRGR
In the case of B2, in the assay with human TrkC, a half-maximal effect (EC50) was put at 28 nM and the “response of TrkC-NFAT-bla CHO-K1 cells (in words)” value is “only at the highest concentration (50 nM) tested”. For the same molecule, in the assay with human TrkA, the EC50 was above 50 nM and the “response of TrkA-NFAT-bla CHO-K1 cells (in words)” value is “minimal effect”. In the assay with human TrkB, the “maximum response ratio, TrkB-NFAT-bla CHO-K1” value is given as 14 and the EC50 was 0.39 nM. The “EC80 concentration, TrkB cells” value in the assay with human TrkB (setting [2]) came out at 1 nM.

B3: NT-4: neurotrophin 4, ligand of TrkB (protein, UniProt P34130 81-210, looked up)
Neurotrophin-4: GVSETAPASRRGELAVCDAVSGWVTDRRTAVDLRGREVEVLGEVPAAGGSPLRQYFFETRCKADNAEEGGPGAGGGGCRGVDRRHWVSECKAKQSYVRALTADAQGRVGWRWIRIDTACVCTLLSRTGRA
As to B3, in the assay with human TrkC, the EC50 is above 50 nM and the “response of TrkC-NFAT-bla CHO-K1 cells (in words)” value is reported as “did not show any response”. Besides, in the assay with human TrkA, the EC50 was above 50 nM and the “response of TrkA-NFAT-bla CHO-K1 cells (in words)” value was “minimal effect”. In the assay with human TrkB, the “maximum response ratio, TrkB-NFAT-bla CHO-K1” value is 13 and the concentration for a half-maximal effect (EC50) was found to be 3.5 nM.
